# Measurements from patent US20160052997A1 (CELLTRION, published 2016).
# B1: CT120 (antibody, V domains shown)
# VH: QVQLVQSGAEVKMPGSSVKVSCKTSGVFFSSHAISWVRQAPGQGLEWMGGISPMFGTTHYAQKFQGRVTITADQSTTTAYMELTSLTSEDTAVYYCARDGAGSYYPLNWFDPWGQGTLVTVSS
# VL: EIVLTQSPATLSLSPGERATLSCRASENIWNNLAWYQQKPGQAPRLLISGASTGATGVPSRFRGSGSRTEFTLTISSLQSEDFAIYFCQQYNSWPRTFGPGTKVEIKR
# Target: HA of A/CA/04/09 (H1N1) virus (Influenza A virus A/CA/04/09 (H1N1))
# Assay: cell-based or functional assay
binder,measurement,value
B1,"EC50, microneutralization test",0.21 µg/mL
